# “Also recorded” adds a separate entry of the source. No end group written: not given here.
# B1: Cdc20P1 (14-amino acid peptide corresponding to residues 124-137 of Cdc20) (peptide, UniProt Q12834 124-137, looked up)
# peptide: DVEEAKILRLSGKP
# notes: also called Cdc20P1 peptide; 15N-Cdc20P1
# Tests used:
# [1] = in words; cited from earlier work
# [2] = oral tablet; cited from earlier work
# [3] = in vivo; cited from earlier work
# [4] = cited from earlier work
# [5] = oral administration; cited from earlier work
# Mad2 [6] = molecular target: T1, Mad2 (Homo sapiens, UniProt Q13257); experiment: Tryptophan fluorescence titration of Mad2 with peptide; format: binding; design: made in house; conditions: addition of peptide to saturation
# Description: Binding affinity between Mad2 and Cdc20P1 was determined. Two tryptophan residues are located in the proximity of the C-terminal tail of Mad2 that is involved in binding to Cdc20. Thus, binding of Cdc20P1 may affect the tryptophan fluorescence of Mad2. The intensity of tryptophan fluorescence of Mad2 was indeed reduced by 70% upon the addition of Cdc20P1 to saturation. […] This is consistent with the fact that binding of Cdc20P1 to Mad2 occurs with an intermediate exchange rate on the NMR time scale. The relative low affinity of Cdc20P1 toward Mad2 may also be the cause of the slow aggregation phenomenon of the Mad2-Cdc20P1 complex. Thus, Mad2 ligands with higher affinity for Mad2 are required for structural studies.
# Mad2 [7] = molecular target: T1, Mad2; experiment: ELISA-type assay of phage display clones on Mad2; format: binding; design: made in house; conditions: phage clone on Mad2
# Text: Phage display library with Mad2 was screened and several clones were sequenced and analyzed using ELISA-type assays.
# By coincidence, the MBP1 sequence was isolated again and the MBP1 phage clone gave an ELISA reading of 0.62 (OD at 410 nm). […] The peptides with higher ELISA readings than MBP1 are synthesized. As these peptides, including MBP1, contain tryptophan in their sequences, tryptophan fluorescence assay cannot be used to measure the affinities of these peptides toward Mad2. Alternative assays are developed and used.
# Mad2 [8] = molecular target: T1, Mad2; experiment: In vitro APC ubiquitination assay (Mad2 inhibition of APC^Cdc20, cyclin B1 substrate); format: biochemical; conditions: peptide at 100 μM
# Text: To determine whether binding of MBP1 affects the association of Mad2 with the intact Cdc20, the inventors performed an in vitro APC ubiquitination assay. In this assay, a Myc-epitope tagged N-terminal fragment of human cyclin B1 was used as the substrate. Purified recombinant human E1, UbcH10 (E2), ATP, and ubiquitin were also included (FIG. 3A). In the presence of active APC (E3), ubiquitin was ligated to the lysine side chains of cyclin B1, forming cyclin-ubiquitin conjugates with isopeptide linkages. The reaction mixture was then analyzed by SDS-PAGE followed by immuno-blotting with an anti-Myc antibody. The appearance and the intensity of the higher molecular weight bands were then used as the criteria for the activity of APC.
# Addition of the APC activator, Cdc20, greatly stimulated the activity of APC. […] Therefore, MBP1 can block the biochemical function of Mad2 in vitro.
# HeLa cells = experiment: Mitotic arrest by GFP-Mad2 overexpression in HeLa cells; format: cell-based; conditions: co-transfection of plasmid encoding the peptide; cell shape, DNA-staining, FACS
# Text: Overexpression of Mad2 in HeLa cells causes a prolonged mitotic arrest because Mad2 at elevated levels inhibits APCCdc20 in these cells in the absence of spindle damage. […] The cells round up when they undergo mitosis while the interphase cells are flat. […] The cell cycle status of the transfected cells was also confirmed by DNA-staining and by FACS analysis.
# Mad2 [9] = molecular target: T1, Mad2; experiment: 1H-15N HSQC NMR binding and competition on 15N-labeled Mad2; design: made in house; conditions: for binding to Mad2: change of the HSQC spectrum of Mad2: addition of peptide to 15N-labeled Mad2; for relative affinity toward Mad2 by competition: two peptides added to Mad2, HSQC spectrum
# Description: To determine whether MBP1 and Cdc20 bind to the same site on Mad2. Mad2 was pre-incubated with an excess amount of Cdc20P1. MBP1 was then added to the pre-formed Mad2-Cdc20P1 complex. HSQC spectra were taken before and after the addition of MBP1. Prior to the addition of MBP1, Mad2 formed a complex with Cdc20P1 as indicated by the HSQC spectrum. After the addition of MBP1, the HSQC spectrum of the resulting sample looked identical to that of the Mad2-MBP1 complex. Therefore, MBP1 effectively displaced Cdc20P1 away from Mad2 and formed a complex with Mad2 in the presence of Cdc20P1. […] However, it is also conceivable that MBP1 affects the binding of Cdc20P1 to Mad2 in an allosteric fashion.
# The relative affinity of Mad2-MBP2 was compared to Mad2-Cdc20P1 and Mad2-MBP1. […] However, when both MBP1 and MBP2 were added to Mad2, the HSQC spectrum of the resulting sample contained two sets of signals of roughly equal intensity: one set of signals belonged to Mad2-MBP1 while the other set was from Mad2-MBP2. […] Furthermore, the exchange between these two bound forms of Mad2 occurs with a rate that is slow on the NMR time scale.
# Mad2 [10] = molecular target: T1, Mad2; experiment: Aggregation of Mad2-peptide complex over time (HSQC after incubation at 30° C.); design: made in house; conditions: incubation at 30° C. / extended periods of time
# Description: To confirm if the complex aggregated over time, an HSQC spectrum was acquired on a freshly prepared ^15N-Mad2-Cdc20P1 sample. This sample was then incubated at 30° C. (the temperature for NMR data acquisition) for 48 hours and another HSQC was acquired.
# [11] = molecular target: T2, Mad2 protein (mitotic checkpoint protein Mad2, purified recombinant) (UniProt Q13257 1-205); experiment: tryptophan fluorescence titration of Mad2 with Cdc20P1
# T2 construct: also called 15N-Mad2; free Mad2
# T2 sequence (Q13257 whole entry): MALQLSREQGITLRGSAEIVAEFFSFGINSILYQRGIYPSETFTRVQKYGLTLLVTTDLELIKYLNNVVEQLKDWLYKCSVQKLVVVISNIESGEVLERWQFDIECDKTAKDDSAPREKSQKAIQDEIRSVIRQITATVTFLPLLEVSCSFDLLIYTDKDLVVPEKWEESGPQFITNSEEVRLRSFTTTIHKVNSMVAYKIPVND
# T1 sequence (Q13257 whole entry): as above
molecule,measurement,setting,value
"O=NN(CCCl)C(=O)NCCCl [Carmustine, 1,3 bis (2-chloroethyl)-1-nitrosourea]",solubility in water,[1],poorly soluble in water
"O=C(O)CCCc1ccc(N(CCCl)CCCl)cc1 [Chlorambucil, 4-[bis(2-chlorethyl)amino] benzenebutanoic acid]",absorption from the gastrointestinal tract,[2],rapidly and completely absorbed from the gastrointestinal tract
"O.O=P1(N(CCCl)CCCl)NCCCO1 (stereo not shown) [Cyclophosphamide, 2H-1,3,2-Oxazaphosphorin-2-amine, N,N-bis(2-chloroethyl)tetrahydro-, 2-oxide, monohydrate]",stability in the gastrointestinal tract,[3],stable in the gastrointestinal tract
"O=NN(CCCl)C(=O)NC1CCCCC1 [Lomustine, 1-(2-chloro-ethyl)-3-cyclohexyl-1 nitrosourea]",tissue levels versus plasma levels,[4]; 15 minutes after intravenous administration,comparable to plasma levels
same,radioactivity excreted in the form of degradation products,"[4]; within 24 hours, oral radioactive lomustine about 30 mg/m^2 to 100 mg/m^2",about half
"N[C@@H](Cc1ccc(N(CCCl)CCCl)cc1)C(=O)O [Melphalan, 4-[bis(2-chloroethyl)amino]-L-phenylalanine]",fraction of patients with multiple myeloma showing a favorable response,[5],one third to one half
same,solubility in water,[1],insoluble in water
DVEEAKILRLSGKP [Cdc20P1],reduction of intensity of tryptophan fluorescence of Mad2,Mad2 [6],70%
GWWHIPSPVLRP [clone 11],ELISA reading,Mad2 [7],1.37 OD at 410 nm
"MBP1: 12-residue Mad2-binding peptide identified by phage display, contains tryptophan; probably SWYSYPPPQRAV (SEQ ID NO:2)",effect on the ability of Mad2 to inhibit the ubiquitination activity of APC^Cdc20,Mad2 [8],blocked the ability of Mad2 to inhibit APC^Cdc20; also recorded: prevented Mad2 from inhibiting APCCdc20
same,effect on mitotic arrest caused by GFP-Mad2 overexpression,HeLa cells,counteracted the action of Mad2; also recorded: did not arrest in mitosis
same,binding to Mad2: change of the HSQC spectrum of Mad2,Mad2 [9],caused dramatic chemical shift changes of the majority of signals
same,relative affinity toward Mad2 by competition,Mad2 [9],affinity of MBP1 toward Mad2 is higher than that of Cdc20P1; also recorded: MBP1 and MBP2 bind to Mad2 with very similar affinities
same,aggregation of the Mad2-peptide complex,Mad2 [10],stable for extended periods of time and did not aggregate
same,ELISA reading,Mad2 [7],0.62 OD at 410 nm
"MBP2: Mad2-binding peptide from phage display sharing strong sequence similarity with Cdc20P1, no tryptophans; probably DARIIKLPVPKP (SEQ ID NO:3)",binding to Mad2: change of the HSQC spectrum of Mad2,Mad2 [9],induced dramatic chemical shift changes of the majority of Mad2 signals
same,relative affinity toward Mad2 by competition,Mad2 [9],binds to Mad2 with a higher affinity than Cdc20P1; also recorded: MBP1 and MBP2 bind to Mad2 with very similar affinities
same,aggregation of the Mad2-peptide complex,Mad2 [10],did not form high molecular weight aggregates
B1,Kd,[11],3.6 µM

# Source: patent US20030083261A1, “Class of 12mer peptides that inhibit the function of the mitotic check point protein Mad2” (priority 2001, published 2003)
